Test results reported in US9243280.
“Also recorded” adds a separate entry of the source.

Columns and labels:
[1] = system: GFP fusion with aminoglycoside acetyltransferase (AAC)
[2] = target: Ribosomal protein S1 bearing the C-terminal control peptide tag (UniProt P0AG67)
[3] = target: Ribosomal protein S1 bearing the C-terminal degradation peptide tag (UniProt P0AG67)

Substance: ClpXP protease (complex of a hexamer of the ClpX unfoldase and the 14-mer ClpP protease)
- in vitro degradation at 30 degrees C with ClpX, ClpP, ATP and an ATP regeneration system (SDS-PAGE, Coomassie staining) [1]: By 80 minutes, all of the substrate (10-fold over ClpX6) was degraded
- colony formation on plates with arabinose (ClpP and ClpX induced) [2]: Colony formation by the rpsA-cont strain was unaffected by ClpP-X expression
- level of S1-cont after induction of ClpP-X (anti-FLAG immunoblot of total protein) [2]: The induction of ClpP-X in the rpsA-cont strain did not alter the level of S1-cont throughout the time course
- amount of S1-deg present 25, 35, and 45 minutes post induction, quantified against a dilution series on an immunoblot [3]: less than 0.5% of the level present prior to induction
- level of S1-deg after induction of ClpP-X (anti-FLAG immunoblot of total protein) [3]: the level of S1-deg was reduced to approximately 50% by 15 minutes; also recorded: to trace levels at 25 minutes and beyond
- number of colony-forming units on plates under inducing against non-inducing conditions [3]: expression of ClpP-X reduced the number of colony-forming units by more than a million-fold when the strain relied on S1-deg for growth
